According to PMC3155546 (PLoS ONE, 2011):

Target: T1, GST-TPPP1–219 (human, UniProt O94811 1-219)
T1 construct: also called GST-TPPP(FL); full-length TPPP
Assay: co-IP
Settings: both partners purified

T1 sequence (O94811 whole entry): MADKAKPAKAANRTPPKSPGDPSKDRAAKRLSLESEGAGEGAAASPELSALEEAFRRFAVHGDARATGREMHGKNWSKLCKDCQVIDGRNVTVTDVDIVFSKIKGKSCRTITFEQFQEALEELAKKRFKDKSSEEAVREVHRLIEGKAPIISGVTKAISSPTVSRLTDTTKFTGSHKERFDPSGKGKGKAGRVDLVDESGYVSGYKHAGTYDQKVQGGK

Binder: KTNMKHMAGAAAAGAVVGGLG (domain or fragment) [GST-PrP106–126]
- binding result: binds
